Results: US20250163166A1

How the values were obtained:
[1] = target: human FCγRIIIa receptor (human) (UniProt P08637); experiment: BLI (Octet 96), antibody loaded on sensor, FCγRIIIa 200 nM and 2-fold dilutions in solution
[2] = target: human FCγRIIIa receptor (human) (UniProt P08637); experiment: BLI; Ratio of the hIgG (hIgG1) control against itself

human FCγRIIIa receptor (human), sequence (P08637 17-208 limits assumed): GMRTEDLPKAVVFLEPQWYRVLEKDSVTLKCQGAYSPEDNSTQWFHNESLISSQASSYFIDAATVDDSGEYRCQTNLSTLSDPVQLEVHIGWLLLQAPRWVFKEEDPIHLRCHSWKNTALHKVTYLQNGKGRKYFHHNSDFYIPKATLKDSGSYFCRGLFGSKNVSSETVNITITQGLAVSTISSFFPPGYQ

Kd [1]: 88.6 nM
Ratio [2]: 1
Substance: control sample hIgG1 (antibody)
